Common to all, as to assay: cell-based or functional assay
The target of assay [1] is HIV-1 Env of isolate 92BR020, clade B (HIV-1).
For assay [2], the target named is HIV-1 Env of isolate MGRM-A-006 (clade A pseudovirus) (HIV-1).
Assay [3] deals with HIV-1 NL43 envelope (Env) on pseudovirus (HIV-1).
Assay [4] concerns the target HIV-1 92RW020 envelope (Env) on pseudovirus (HIV-1).
In assay [5] the target is HIV-1 Env of isolate MGRM-D-019 (clade D pseudovirus) (HIV-1).
Assay [6] addresses HIV-1 envelope glycoprotein (Env) of isolate MGRM-C-008 (HIV-1).
The target of assay [7] is HIV-1 Env of isolate MGRM-A-008 (clade A pseudovirus) (HIV-1).
Assay [8] concerns the target HIV-1 MGRM-AG-013 Env (pseudovirus) (HIV-1).
The target in assay [9] is HIV-1 Env of isolate MGRM-A-007 (clade A pseudovirus) (HIV-1).
Assay [10] has as its target HIV-1 Env of isolate 6535.3 (Acute), clade B (HIV-1).
The target in assay [11] is HIV-1 Env of isolate 92RW020 (Clade A) (HIV-1).
Assay [12] concerns the target HIV-1 Env of isolate MGRM-A-002 (clade A pseudovirus) (HIV-1).
The target of assay [13] is HIV-1 Env of isolate 92UG046 (clade D pseudovirus) (HIV-1).
In assay [14] the target is HIV-1 92UG024 envelope (Env) on pseudovirus (HIV-1).
The target in assay [15] is HIV-1 Env of pseudovirus MGRM-G-011 (HIV-1).
For assay [16], the target named is HIV-1 Env of isolate MGRM-D-028 (clade D pseudovirus) (HIV-1).

Bounds are passed on as bounds.

Chain of 1443_C16 (PG16) (TCN-116) (antibody) (VH): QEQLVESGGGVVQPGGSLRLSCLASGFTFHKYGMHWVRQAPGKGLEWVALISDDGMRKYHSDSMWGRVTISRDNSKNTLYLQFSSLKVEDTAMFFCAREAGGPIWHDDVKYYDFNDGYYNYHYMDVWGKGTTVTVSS
Chain of 1443_C16 (PG16) (TCN-116) (antibody) (VL): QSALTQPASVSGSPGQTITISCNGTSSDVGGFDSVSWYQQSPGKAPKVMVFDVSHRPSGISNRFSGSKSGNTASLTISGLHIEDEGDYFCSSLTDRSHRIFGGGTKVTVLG

As for 4E10 (antibody), the IC50 (µg/ml), pseudovirus neutralization in [1] is > 50 µg/mL; in assay [2], 9.87 µg/mL; in assay [6] it was 2.97 µg/mL; in assay [7], 7.59 µg/mL; in assay [8] it was 2.61 µg/mL; in assay [9], 1.82 µg/mL. The IC50 (µg/ml), pseudovirus neutralization in assay [10] was 1.23 µg/mL; in assay [12], 6.45 µg/mL; in [15] it was 1.44 µg/mL. Further, the results for the neutralization IC50 in assay [3], in assay [4] and in [14] were 4.95 µg/mL, 3.38 µg/mL and 1.32 µg/mL, respectively. The IC50, pseudovirus neutralization in [5] was 0.04 µg/mL; in [13], 12.2 µg/mL; in [16], 1.28 µg/mL. The substance also showed an IC90 (neutralization of pseudovirus) in assay [11] of 36.1 µg/mL.
1443_C16 (PG16) (TCN-116) (antibody): the IC50 (µg/ml), pseudovirus neutralization in assay [1] was > 50 µg/mL; in [2], > 50 µg/mL; in assay [6] it was > 50 µg/mL; in assay [7] it was > 50 µg/mL; in assay [8] it was 0.31 µg/mL; in [9], 5.91 µg/mL. Further, the IC50 (µg/ml), pseudovirus neutralization was 36.9 µg/mL in assay [10], 0.004 µg/mL in [12] and 0.04 µg/mL in [15]. Besides, the neutralization IC50 in [3] was < 0.0025 µg/mL; in [4], 0.004 µg/mL; in assay [14], > 50 µg/mL. The IC50, pseudovirus neutralization in assay [5] is 0.01 µg/mL; in [13], 1.42 µg/mL; in [16], > 50 µg/mL. For the same substance, the IC90 (neutralization of pseudovirus) in assay [11] was > 50 µg/mL.
Consider 2F5 (antibody), for which the IC50 (µg/ml), pseudovirus neutralization is > 50 µg/mL in assay [1]; 15.7 µg/mL in [2]; > 50 µg/mL in assay [6]; > 50 µg/mL in assay [7]; 1.79 µg/mL in assay [8]; 16.3 µg/mL in assay [9]. The IC50 (µg/ml), pseudovirus neutralization was 2.76 µg/mL in [10], > 50 µg/mL in assay [12] and 1.16 µg/mL in assay [15]. Also, the neutralization IC50 in assay [3] was 2.41 µg/mL; in [4], 3.37 µg/mL; in assay [14] it was 1.27 µg/mL. Further, the results for the IC50, pseudovirus neutralization in [5], in assay [13] and in [16] were 0.14 µg/mL, > 50 µg/mL and > 50 µg/mL, respectively. This substance registered an IC90 (neutralization of pseudovirus) in assay [11] of 27.7 µg/mL.

The values above are taken from patent US20240132578A1.
